Here are results for 27 molecules from patent US20090022728A1 (RINAT NEUROSCIENCE, published 2009).

The term Kd denotes the free concentration of one partner at which half of the binding sites on the other are occupied at equilibrium, for simple one-to-one binding. Low values mean a tighter complex, high ones a looser complex. Usually kon stands for the second-order rate constant of association. Read a high kon as fast association. One may read the koff as the first-order rate constant of dissociation. The low end stands for slow dissociation, the high end for fast dissociation.

Changes are numbered by the printed parent chain. Numbers in names are those of the source.

B1: 9TL variant M42 Fab (Fab, V domains shown)
VH: QVQLVQSGAEVKKPGASVKVSCKASGYYTEAYYIHWVRQAPGQGLEWMGRIDPATGNTKYAPRLQDRVTMTRDTSTSTVYMELSSLRSEDTAVYYCASLYSEPVYWGQGTTVTVSS
VL: DVVMTQSPLSLPVTLGQPASISCKSSQSLLYSDAKTYLNWFQQRPGQSPRRLIYQISRLDPGVPDRFSGSGSGTDFTLKISRVEAEDVGVYYCLQGTHYPVLFGQGTRLEIKR
notes: Fab; human IgG2 CH1 and kappa CL
B2: 9TL variant M53 Fab (Fab, V domains shown)
VH: B1 VH with E102L, Y105W
VL: B1 VL
notes: as for B1
B3: 9TL variant M50 Fab (Fab, V domains shown)
VH: B1 VH with E102L, V104F
VL: B1 VL
notes: as for B1
B4: 9TL variant M49 Fab (Fab, V domains shown)
VH: B1 VH with E102L, V104N
VL: B1 VL
notes: as for B1
B5: 9TL variant M55 Fab (Fab, V domains shown)
VH: B1 VH with E102L, Y105I
VL: B1 VL
notes: as for B1
B6: 9TL variant W1 Fab (Fab, V domains shown)
VH: B1 VH with E102L
VL: B1 VL with Y31A, A34S, L102T
notes: as for B1
B7: 9TL variant M48 Fab (Fab, V domains shown)
VH: B1 VH with E102L, V104S
VL: B1 VL
notes: as for B1
B8: 9TL variant M56 Fab (Fab, V domains shown)
VH: B1 VH with E102L, Y105V
VL: B1 VL
notes: as for B1
B9: 9TL variant M46 Fab (Fab, V domains shown)
VH: B1 VH with E102L, V104C
VL: B1 VL
notes: as for B1
B10: 9TL variant M52 Fab (Fab, V domains shown)
VH: B1 VH with E102L, Y105F
VL: B1 VL
notes: as for B1
B11: 9TL variant M54 Fab (Fab, V domains shown)
VH: B1 VH with E102L, Y105S
VL: B1 VL
notes: as for B1
B12: 9TL variant W5 Fab (Fab, V domains shown)
VH: B1 VH with E102L
VL: B1 VL with Y31H, K35A, L102T
notes: as for B1
B13: 9TL variant M47 Fab (Fab, V domains shown)
VH: B1 VH with E102L, V104Q
VL: B1 VL
notes: as for B1
B14: 9TL variant M51 Fab (Fab, V domains shown)
VH: B1 VH with E102L, Y105H
VL: B1 VL
notes: as for B1
B15: 9TL variant M43 Fab (Fab, V domains shown)
VH: B1 VH with E102L, V104I
VL: B1 VL
notes: as for B1
B16: 9TL variant W8 Fab (Fab, V domains shown)
VH: B1 VH with E102L
VL: B1 VL with Y31H, A34S, K35A, L102T
notes: as for B1
B17: 6G heavy chain variant 3C (D103G) (antibody, V domains shown)
VH: QVQLVQSGAEVKKPGASVKVSCKASGYTFTTYAIHWVRQAPGQGLEWMGFTSPYSGVSNYNQKFKGRVTMTRDTSTSTVYMELSSLRSEDTAVYYCARFDNYGRGYVRDYWGQGTLVTVS
VL: DIVMTQSPDSLAVSLGERATINCRASESVDNDRISFLNWYQQKPGQPPKLLIYAATKQGTGVPDRFSGSGSGTDFTLTISSLQAEDVAVYYCQQSKEFPWSFGGGTKVEIKR
B18: 6G heavy chain variant 9E (N101R) (antibody, V domains shown)
VH: B17 VH with N101R, G103D
VL: B17 VL
B19: 6G heavy chain variant 4B (R104F) (antibody, V domains shown)
VH: B17 VH with G103D, R104F
VL: B17 VL
B20: 6G heavy chain variant 4D (R104Q) (antibody, V domains shown)
VH: B17 VH with G103D, R104Q
VL: B17 VL
B21: 6G heavy chain variant 6F (R104S) (antibody, V domains shown)
VH: B17 VH with G103D, R104S
VL: B17 VL
B22: 6G heavy chain variant 8H (N101H) (antibody, V domains shown)
VH: B17 VH with N101H, G103D
VL: B17 VL
B23: 6G light chain variant 5B (Q94G) (antibody, V domains shown)
VH: B17 VH with G103D
VL: B17 VL with Q94G
B24: 6G light chain variant 7F (Q94K) (antibody, V domains shown)
VH: B17 VH with G103D
VL: B17 VL with Q94K
B25: 6G light chain variant 7E (Q94R) (antibody, V domains shown)
VH: B17 VH with G103D
VL: B17 VL with Q94R
B26: 6G light chain variant 10E (S95L) (antibody, V domains shown)
VH: B17 VH with G103D
VL: B17 VL with S95L
B27: 6G light chain variant 6E (E97P) (antibody, V domains shown)
VH: B17 VH with G103D
VL: B17 VL with E97P

T2 sequence (peptide, as listed by the source): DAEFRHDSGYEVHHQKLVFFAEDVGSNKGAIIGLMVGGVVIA
T1 sequence (peptide, as listed by the source): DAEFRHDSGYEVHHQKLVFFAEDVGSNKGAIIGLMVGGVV

The first assay has as its target T1, biotinylated Aβ1-40 peptide (biotinylated (N-biotinylated in Example 7)).
T1 construct: captured on streptavidin (SA) chip; also called Biotinylated Aβ peptide 1-40; Aβ1-40 on SA chip
The assay is described as follows: SPR, Fab over Aβ1-40 on SA chip; KD=koff/kon. How it is done: (§1) Affinities of 9TL Fab fragment and its variants Fab fragments were determined by Surface Plasmon Resonance (SPR) system (BIAcore 3000™, BIAcore, Inc., Piscaway, N.J.). SA chips (streptavidin) were used according to the supplier's instructions. Biotinylated Aβ peptide 1-40 was diluted into HBS-EP (10 mM HEPES pH 7.4, 150 mM NaCl, 3 mM EDTA, 0.005% P20) and injected over the chip at a concentration of 0.005 mg/mL. Using variable flow time across the individual chip channels, two ranges of antigen density were achieved: 10-200 response units (RU) for detailed kinetic studies and 500-600 RU for concentration studies and screening. […] HBS-EP buffer was used as running buffer for all the BIAcore assays. […] The concentrations of the Fab proteins were determined by ELISA and/or SDS-PAGE electrophoresis using a standard Fab of known concentration (determined by amino acid analysis). Kinetic association rates (kₒₙ) and dissociation rates (koff) were obtained simultaneously by fitting the data to a 1:1 Langmuir binding model (Karlsson, R. Roos, H. Fagerstam, L. Petersson, B. (1994). Methods Enzymology 6. 99-110) using the BIAevaluation program. Equilibrium dissociation constant (KD) values were calculated as koff/kₒₙ.
(§2) All amino acid substitutions of the variants shown in Table 3 are described relative to the sequence of 9TL. KD and other kinetic parameters were determined by BIAcore analysis described above with Aβ₁₋₄₀ immobilized on SA chip.
In general terms: Surface plasmon resonance follows binding to a sensor surface in real time, without labels.
Take B1: binding was put at a Kd of 47.2 nM.

B2: binding was put at a Kd of 4.09 nM.

In turn, B3 showed a Kd of 84.9 nM.

With B4, the Kd stood at 81.8 nM.

B5 returned a Kd of 9.43 nM. Compared with the last molecule, the Kd is about 8.7-fold lower.

On to B6, for which the Kd was found to be 28.3 nM.

Molecule B7 gave a Kd of 81.8 nM.

In turn, B8 displayed a Kd of 11 nM. Against the preceding molecule, the Kd is about 7.4-fold lower.

B9 registered a Kd of 62.9 nM. This Kd lies about 5.7-fold higher than the previous one.

In the case of B10, the Kd was 4.09 nM.

For the molecule B11, binding was put at a Kd of 7.55 nM.

The molecule B12 came in with an equilibrium dissociation constant (Kd) of 12.6 nM.

Molecule B13 returned a Kd of 62.9 nM.

B14 registered a Kd of 2.7 nM.

Regarding B15, the Kd turned out to be 0.94 nM.

B16: the dissociation constant Kd was 11.9 nM. Compared with the last molecule, the Kd is about 13-fold higher.

Another assay addresses T1, biotinylated Aβ1-40 peptide. The assay is described as follows: SPR, Fab over Aβ1-40 on SA chip; kon may be assumed = 9TL (footnote 2). The procedure:
as §1, §2
B1: the association rate constant (kon) turned out to be 318000 M⁻¹ s⁻¹.

As to B2, the kon is 318000 M⁻¹ s⁻¹.

In the case of B3, the kon was found to be 318000 M⁻¹ s⁻¹.

In the case of B4, the kon stood at 318000 M⁻¹ s⁻¹.

On to B5, for which the association rate constant (kon) worked out at 318000 M⁻¹ s⁻¹.

B6: the kon was 318000 M⁻¹ s⁻¹.

B7 showed a kon of 318000 M⁻¹ s⁻¹.

For the molecule B8, the kon came out at 318000 M⁻¹ s⁻¹.

B9: the kon came out at 318000 M⁻¹ s⁻¹.

The molecule B10 gave an on-rate (kon) of 318000 M⁻¹ s⁻¹.

On to B11, for which the kon is 318000 M⁻¹ s⁻¹.

In turn, B12 came in with a kon of 318000 M⁻¹ s⁻¹.

Consider B13, for which the kon stood at 318000 M⁻¹ s⁻¹.

For B14, the kon is 318000 M⁻¹ s⁻¹.

On to B15, for which the kon stood at 318000 M⁻¹ s⁻¹.

As for B16, the kon came out at 318000 M⁻¹ s⁻¹.

For another assay the target is unchanged. The assay is described as follows: SPR, Fab over Aβ1-40 on SA chip. The procedure:
as §1, §2
In turn, B1 displayed an off-rate constant (koff) of 0.015 s⁻¹.

For the molecule B2, the koff was 0.0013 s⁻¹. This koff lies about 12-fold lower than the previous one.

Take B3: the koff worked out at 0.027 s⁻¹. Against the preceding molecule, the koff is about 21-fold higher.

On to B4, for which the koff worked out at 0.026 s⁻¹.

B5 showed a dissociation rate constant (koff) of 0.003 s⁻¹.

The molecule B6 yielded a koff of 0.009 s⁻¹.

On to B7, for which the koff is 0.026 s⁻¹. Against the preceding molecule, the koff is about 2.9-fold higher.

B8: the off-rate constant (koff) worked out at 0.0035 s⁻¹.

The molecule B9 gave a koff of 0.02 s⁻¹. This koff is about 5.7-fold higher than that of the molecule before.

In turn, B10 registered a koff of 0.0013 s⁻¹.

Consider B11, for which the off-rate (koff) worked out at 0.0024 s⁻¹.

As for B12, the off-rate constant (koff) worked out at 0.004 s⁻¹.

Turning to B13, the koff came out at 0.02 s⁻¹.

For the molecule B14, the koff is 0.00086 s⁻¹.

The molecule B15 had a koff of 0.0003 s⁻¹.

The molecule B16 registered a koff of 0.0038 s⁻¹.

A further assay addresses T2, Aβ1-42 peptide.
T2 construct: also called 1-42 (WT)
As to the kind of experiment: ELISA, nonbiotinylated peptide on plate. The procedure:
(§3) ELISA was used for measuring binding of antibody 6G and variants to nonbiotinylated Aβ peptides. NUNC maxisorp plates were coated with 2.5 ug/ml of Aβ peptides in PBS pH 7.4 for more than 1 hour at 4° C. Plates were blocked with 1% BSA in PBS buffer pH 7.4. Primary antibody (from cell supernatants, serum containing anti-Aβ antibody, or purified full antibody or Fabs at desired dilution) was incubated with the immobilized Aβ peptides for 1 h at room temperature. After washing, the plates were incubated with secondary antibody, a HRP conjugated goat anti-human kappa chain antibody (MP Biomedicals, 55233) at 1:5000 dilution. After washing, bound secondary antibody was measured by adding TMB substrate (KPL, 50-76-02, 50-65-02). The HRP reaction was stopped by adding 1M phosphoric acid and absorbance at 450 nm was measured.
(§4) All amino acid substitutions of the variants shown in Table 8 are described relative to the sequence of 6G. Binding was determined by ELISA described above with nonbiotinylated Aβ₁₋₄₀ or Aβ₁₋₄₂ immobilized on the surface of an ELISA plate.
Turning to B17, the “A450 ELISA” value was found to be 0.76 A450.

Consider B18, for which the “A450 ELISA” value was found to be 0.26 A450.

Take B19: the “A450 ELISA” value amounted to 0.71 A450.

Regarding B20, the “A450 ELISA” value was determined as 1 A450.

Take B21: the “A450 ELISA” value is 0.62 A450.

On to B22, for which the “A450 ELISA” value was 0.19 A450.

The next assay addresses T3, Aβ1-40 peptide.
T3 construct: synthetic peptide, not biotinylated; also called 1-40 (WT); beta amyloid 1-40
As to the kind of experiment: ELISA, nonbiotinylated peptide on plate. How it is done:
as §3, §4
A general note: In an ELISA, binding on a coated surface is turned into a signal by an enzyme label.
Consider B17, for which the “A450 ELISA” value came out at 2.3 A450.

Consider B23, for which the “A450 ELISA” value came out at 0.09 A450.

B24: the “A450 ELISA” value turned out to be 0.12 A450.

For the molecule B25, the “A450 ELISA” value stood at 0.09 A450.

As for B19, the “A450 ELISA” value turned out to be 2.48 A450.

On to B20, for which the “A450 ELISA” value was 2.45 A450.

Take B26: the “A450 ELISA” value turned out to be 0.08 A450.

For the molecule B21, the “A450 ELISA” value stood at 2.28 A450.

Regarding B27, the “A450 ELISA” value is 0.12 A450.
